For six molecules, Mouse agonist-CTG: IC50 and EC50 results are on record in patent US20210269496A1 (PANDION OPERATIONS, published 2021).

To fix the notation:
T1: CD25 (Homo sapiens (Human), UniProt P01589 22-240)
T1 construct: also called IL-2R alpha chain
T1 sequence: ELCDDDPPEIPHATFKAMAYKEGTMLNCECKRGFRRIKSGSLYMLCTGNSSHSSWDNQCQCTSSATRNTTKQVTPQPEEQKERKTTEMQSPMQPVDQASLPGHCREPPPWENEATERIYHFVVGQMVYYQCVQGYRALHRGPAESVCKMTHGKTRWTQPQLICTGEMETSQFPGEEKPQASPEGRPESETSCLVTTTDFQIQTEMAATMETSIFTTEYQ

B1: human IL-2 mutein polypeptide fused N-terminally to human IgG1 Fc domain (SEQ ID NO: 57) (Fc fusion)
chain: APTSSSTKKTQLQLEHLLLDLQMILNGINNYKNPKLTRMLTFKFYMPKKATELKHLQCLEEELKPLEEALNLAPSKNFHLRPRDLISDINVIVLELKGSETTFMCEYADETATIVEFLNRWITFSQSIISTLTGGGGSGGGGSGGGGSGGGGSDKTHTCPPCPAPEAAGAPSVFLFPPKPKDTLMISRTPEVTCVVVDVSHEDPEVKFNWYVDGVEVHNAKTKPREEQYNSTYRVVSVLTVLHQDWLNGKEYKCKVSNKALPAPIEKTISKAKGQPREPQVYTLPPSREEMTKNQVSLTCLVKGFYPSDIAVEWESNGQPENNYKTTPPVLDSDGSFFLYSKLTVDKSRWQQGNVFSCSVMHEALHNHYTQKSLSLSPG
notes: also called IL-2 N88D V69A, Q74P-G4Sx4-Fc
B2: SEQ ID NO 56 (Fc fusion)
chain: APTSSSTKKTQLQLEHLLLDLQMILNGINNYKNPKLTRMLTFKFYMPKKATELKHLQCLEEELKPLEEALNLAPSKNFHLRPRDLISDINVIVLELKGSETTFMCEYADETATIVEFINRWITFSQSIISTLTGGGGSGGGGSGGGGSGGGGSDKTHTCPPCPAPEAAGAPSVFLFPPKPKDTLMISRTPEVTCVVVDVSHEDPEVKFNWYVDGVEVHNAKTKPREEQYNSTYRVVSVLTVLHQDWLNGKEYKCKVSNKALPAPIEKTISKAKGQPREPQVYTLPPSREEMTKNQVSLTCLVKGFYPSDIAVEWESNGQPENNYKTTPPVLDSDGSFFLYSKLTVDKSRWQQGNVFSCSVMHEALHNHYTQKSLSLSPG
notes: also called IL-2 L118I N88D V69A, Q74P, C125S-G4Sx4-Fc
B3: SEQ ID NO 55 (Fc fusion)
chain: APTSSSTKKTQLQLEHLLLDLQMILNGINNYKNPKLTRMLTFKFYMPKKATELKHLQCLEEELKPLEEALNLAPSKNFHIRPRDLISDINVIVLELKGSETTFMCEYADETATIVEFLNRWITFSQSIISTLTGGGGSGGGGSGGGGSGGGGSDKTHTCPPCPAPEAAGAPSVFLFPPKPKDTLMISRTPEVTCVVVDVSHEDPEVKFNWYVDGVEVHNAKTKPREEQYNSTYRVVSVLTVLHQDWLNGKEYKCKVSNKALPAPIEKTISKAKGQPREPQVYTLPPSREEMTKNQVSLTCLVKGFYPSDIAVEWESNGQPENNYKTTPPVLDSDGSFFLYSKLTVDKSRWQQGNVFSCSVMHEALHNHYTQKSLSLSPG
notes: also called IL-2 L80I N88D V69A, C125S Q74P-G4Sx4-Fc
B4: SEQ ID NO 53 (Fc fusion)
chain: APTSSSTKKTQLQLEHLLLDLQMILNGINNYKNPKLTRMLTFKFYMPKKATEIKHLQCLEEELKPLEEALNLAPSKNFHLRPRDLISDINVIVLELKGSETTFMCEYADETATIVEFLNRWITFSQSIISTLTGGGGSGGGGSGGGGSGGGGSDKTHTCPPCPAPEAAGAPSVFLFPPKPKDTLMISRTPEVTCVVVDVSHEDPEVKFNWYVDGVEVHNAKTKPREEQYNSTYRVVSVLTVLHQDWLNGKEYKCKVSNKALPAPIEKTISKAKGQPREPQVYTLPPSREEMTKNQVSLTCLVKGFYPSDIAVEWESNGQPENNYKTTPPVLDSDGSFFLYSKLTVDKSRWQQGNVFSCSVMHEALHNHYTQKSLSLSPG
notes: also called IL-2 L53I N88D V69A, Q74P,C125S-G4Sx4-Fc
B5: SEQ ID NO 54 (Fc fusion)
chain: APTSSSTKKTQLQLEHLLLDLQMILNGINNYKNPKLTRMLTFKFYMPKKATELKHIQCLEEELKPLEEALNLAPSKNFHLRPRDLISDINVIVLELKGSETTFMCEYADETATIVEFLNRWITFSQSIISTLTGGGGSGGGGSGGGGSGGGGSDKTHTCPPCPAPEAAGAPSVFLFPPKPKDTLMISRTPEVTCVVVDVSHEDPEVKFNWYVDGVEVHNAKTKPREEQYNSTYRVVSVLTVLHQDWLNGKEYKCKVSNKALPAPIEKTISKAKGQPREPQVYTLPPSREEMTKNQVSLTCLVKGFYPSDIAVEWESNGQPENNYKTTPPVLDSDGSFFLYSKLTVDKSRWQQGNVFSCSVMHEALHNHYTQKSLSLSPG
notes: also called IL-2 L56I N88D V69A, Q74P, C125S-G4Sx4-Fc

mouse PD-1 on primary mouse T cell blasts (mouse), sequence (Q02242 25-288): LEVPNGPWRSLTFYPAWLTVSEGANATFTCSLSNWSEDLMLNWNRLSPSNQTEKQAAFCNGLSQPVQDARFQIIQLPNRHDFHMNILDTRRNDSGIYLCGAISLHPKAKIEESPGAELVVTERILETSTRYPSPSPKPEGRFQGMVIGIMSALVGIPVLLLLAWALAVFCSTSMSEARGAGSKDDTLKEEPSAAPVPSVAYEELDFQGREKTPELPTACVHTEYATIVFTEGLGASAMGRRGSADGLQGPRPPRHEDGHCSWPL

One experiment has as its target mouse PD-1 on primary mouse T cell blasts (mouse) (UniProt Q02242). The experiment is described as follows: cell-based or functional assay.
“PD-L1 (reference in the table of Example 36) (ligand)” had a Mouse agonist-CTG: IC50 of 2.4 nM.

Another experiment concerns the target T1, CD25. The experiment is described as follows: ELISA, CD25 coated at 0.5 µg/mL, detection with biotinylated anti-IL-2 polyclonal. As for the experimental part:
An immunosorbent plate was coated with CD25 at a concentration of 0.5 μg/mL in PBS pH 7.4, 75 μL/well, and incubated overnight at 4° C. Wells were washed with PBS pH 7.4 containing 0.05% Tween-20 (wash buffer) three times, and then blocked with 200 μL/well 1% BSA in PBS pH 7.4 (block buffer) for two hours at room temperature. After three washes with wash buffer IL-2 muteins SEQ ID NO: 53, SEQ ID NO: 54, SEQ ID NO: 55, SEQ ID NO: 56 were diluted to eleven-two fold serial dilution in PBS containing 1% BSA and 0.05% Tween-20 (assay buffer) with 2 nM being the highest concentration. The diluted material was added to the CD25 coated plate at 75 μL/well for 1 hour at room temperature. After three washes with wash buffer, a goat biotinylated anti-IL-2 polyclonal antibody, diluted to 0.05 μg/mL in assay buffer, was added to the plate at 75 μL/well for 1 hour at room temperature. After three washes with wash buffer high sensitivity streptavidin HRP diluted in assay buffer at 1:5000 was added to the plate at 75 μL/well for 15 minutes at room temperature. After three washes with wash buffer and 1 wash with wash buffer (with no Tween-20), the assay was developed with TMB, and stopped with 1N HCL. OD 450 nm was measured. The experiment included appropriate controls for non-specific binding of the molecules to the plate/block in the absence of CD25. […] Additionally, there was no detection of any compound at any concentration tested, when CD25 was not present on the plate surface, indicating none of the test compounds were interacting non-specifically with the plate surface. Thus, the muteins of Example 19 can bind to CD25.
In general terms: In an ELISA, binding on a coated surface is turned into a signal by an enzyme label.
Turning to B1, the concentration for a half-maximal effect (EC50) is below 1 nM.
Same read-out and setting: in the case of B2 it was below 1 nM; in that of B3, below 1 nM.
On the same count and under the same terms, in the case of B4 it was below 1 nM; in that of B5, below 1 nM.

A word on the EC50: it is the concentration that produces a half-maximal response.
